The numbers were not newly measured in paper PMC12283743, which cites them from elsewhere.

As a reminder, the Kd is the equilibrium constant for the complex coming apart.

The test system of the series is H. pylori surface recombinant antigen (not named) (Helicobacter pylori). To be noted: target of the Kd cut off in the material (recombinant antigen or cells); Sensor only: bacteria incubated 40 min on the aptamer electrode, detection in PBS pH 7.0 (0.1 M for CV), room temperature; conditions of the cited Kd not given.

“AGTGTGCTCTTCTCAGGTCTCGGCGCGGTTGTGGGTACCTAGGGTTGTTGTTGCTTCTCAGCAGTGTCTCAGCATACGCA [H. pylori aptamer]”: the Kd was 0.026 µM.
